Molecular target: Truncated TGF-β type III receptor encoded by partial rat cDNA clone R3-OF (rat) (UniProt P26342)
Experiment: total 125I-TGF-β binding per glass slide of COS cells transfected with the cDNA clone (calculated, data not shown)

Sequence of Truncated TGF-β type III receptor encoded by partial rat cDNA clone R3-OF (rat) (P26342 24-818 L164V limits assumed): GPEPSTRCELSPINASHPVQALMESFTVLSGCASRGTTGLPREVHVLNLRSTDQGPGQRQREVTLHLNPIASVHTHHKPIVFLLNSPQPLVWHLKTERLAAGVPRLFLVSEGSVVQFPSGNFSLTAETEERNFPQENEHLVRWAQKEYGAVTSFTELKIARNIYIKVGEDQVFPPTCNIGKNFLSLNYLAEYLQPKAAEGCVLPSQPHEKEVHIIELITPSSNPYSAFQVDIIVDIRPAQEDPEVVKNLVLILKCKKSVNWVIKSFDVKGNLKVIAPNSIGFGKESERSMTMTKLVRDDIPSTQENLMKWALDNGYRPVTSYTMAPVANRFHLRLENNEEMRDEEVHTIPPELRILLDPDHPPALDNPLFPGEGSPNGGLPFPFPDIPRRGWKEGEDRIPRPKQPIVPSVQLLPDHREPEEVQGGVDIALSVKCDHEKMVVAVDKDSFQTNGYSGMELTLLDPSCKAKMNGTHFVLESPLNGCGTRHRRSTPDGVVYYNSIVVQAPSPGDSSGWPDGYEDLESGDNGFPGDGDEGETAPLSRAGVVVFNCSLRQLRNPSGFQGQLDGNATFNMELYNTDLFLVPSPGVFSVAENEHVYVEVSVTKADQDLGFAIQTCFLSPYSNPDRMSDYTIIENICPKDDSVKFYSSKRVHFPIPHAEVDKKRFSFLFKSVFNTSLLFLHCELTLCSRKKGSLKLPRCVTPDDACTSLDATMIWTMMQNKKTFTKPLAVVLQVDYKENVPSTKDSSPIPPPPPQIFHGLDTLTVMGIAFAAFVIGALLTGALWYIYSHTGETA
Sequence of Recombinant human TGF-β1 (P01137 279-390 limits assumed): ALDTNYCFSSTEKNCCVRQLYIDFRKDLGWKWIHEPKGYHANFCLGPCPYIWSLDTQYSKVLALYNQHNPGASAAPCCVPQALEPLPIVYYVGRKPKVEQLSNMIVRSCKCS

Substance: Recombinant human TGF-β1 (from UniProt P01137 279-390) (ligand)
- fold total 125I-TGF-β binding over mock transfectants: 2 fold

Reference: patent US20080234216A1
